Laboratory results taken from article PMC9482650, “Quantitative fragmentomics allow affinity mapping of interactomes” (Nature Communications, 2022).
Each block holds one binder with its values, some of them ahead of it.

Legend:
Assay in all cases: holdup assay
Design in all cases: key: below the threshold = too weak to quantify, mostly under pKd 3.1 to 4
[1] = target: DLG5_1, Q8TDM6
[2] = target: T1, GRIP1_7, Q9Y3R0
T1 sequence (Q9Y3R0 999-1096, limits assumed, looked up): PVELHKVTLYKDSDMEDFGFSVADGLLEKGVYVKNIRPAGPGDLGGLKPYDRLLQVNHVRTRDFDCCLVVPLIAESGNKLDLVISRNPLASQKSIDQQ

[3] = target: SNX27, Q96L92
[4] = target: NHERF4_1, Q86UT5-2
NHERF4_1, Q86UT5-2, sequence (Q86UT5 other isoform, or with tags, fused parts or gaps): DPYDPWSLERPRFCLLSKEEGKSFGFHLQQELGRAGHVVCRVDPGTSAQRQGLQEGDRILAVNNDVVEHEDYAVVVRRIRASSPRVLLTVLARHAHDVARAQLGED

[5] = target: PICK1, Q9NRD5
PICK1, Q9NRD5, sequence (Q9NRD5 17-115): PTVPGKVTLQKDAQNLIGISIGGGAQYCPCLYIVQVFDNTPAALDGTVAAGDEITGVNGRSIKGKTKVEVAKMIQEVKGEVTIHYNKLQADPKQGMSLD

[6] = target: T2, SNTG1, Q9NSN8
T2 sequence (Q9NSN8 52-150, limits assumed, looked up): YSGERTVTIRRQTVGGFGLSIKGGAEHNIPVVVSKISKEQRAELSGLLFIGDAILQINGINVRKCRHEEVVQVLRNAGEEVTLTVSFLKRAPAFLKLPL

[7] = target: NHERF4_4, Q86UT5
NHERF4_4, Q86UT5, sequence (Q86UT5 464-550): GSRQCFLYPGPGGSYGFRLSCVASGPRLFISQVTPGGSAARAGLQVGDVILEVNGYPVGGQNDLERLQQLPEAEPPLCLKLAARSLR

[8] = target: LNX1_1, Q8TBB1
LNX1_1, Q8TBB1, sequence (Q8TBB1 261-371): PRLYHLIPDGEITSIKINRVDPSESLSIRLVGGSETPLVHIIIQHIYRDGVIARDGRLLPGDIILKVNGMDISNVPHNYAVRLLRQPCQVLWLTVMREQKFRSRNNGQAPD

[9] = target: T3, MPP2, Q14168
T3 sequence (Q14168 180-250, limits assumed, looked up): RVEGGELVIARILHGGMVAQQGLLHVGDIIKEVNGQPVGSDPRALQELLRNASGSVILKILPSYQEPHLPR

[10] = target: FRMPD2_2, Q68DX3
FRMPD2_2, Q68DX3, sequence (Q68DX3 944-1038): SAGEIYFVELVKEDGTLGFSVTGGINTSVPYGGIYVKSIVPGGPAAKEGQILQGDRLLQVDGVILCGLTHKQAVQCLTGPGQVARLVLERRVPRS

[11] = target: T4, SNTA1, Q13424
T4 sequence (Q13424 82-180, limits assumed, looked up): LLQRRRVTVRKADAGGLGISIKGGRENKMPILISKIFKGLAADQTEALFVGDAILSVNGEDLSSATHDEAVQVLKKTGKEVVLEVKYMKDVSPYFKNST

[12] = target: PTPN3, P26045
PTPN3, P26045, sequence (P26045 505-587): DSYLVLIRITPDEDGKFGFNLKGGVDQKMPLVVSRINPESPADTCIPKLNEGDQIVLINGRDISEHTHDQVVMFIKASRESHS

[13] = target: T5, MPDZ_10, O75970
T5 sequence (O75970 1624-1722, limits assumed, looked up): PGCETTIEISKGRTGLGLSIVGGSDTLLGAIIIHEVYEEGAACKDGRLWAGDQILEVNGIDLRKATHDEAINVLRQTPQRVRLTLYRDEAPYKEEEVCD

[14] = target: T6, RAPGEF6, Q8TEU7
T6 sequence (Q8TEU7 525-625, limits assumed, looked up): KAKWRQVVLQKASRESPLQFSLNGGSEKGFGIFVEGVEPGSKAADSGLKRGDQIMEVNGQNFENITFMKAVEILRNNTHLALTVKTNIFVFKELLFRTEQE

[15] = target: Inadl_6, Q8NI35
Inadl_6, Q8NI35, sequence (Q8NI35 1058-1167): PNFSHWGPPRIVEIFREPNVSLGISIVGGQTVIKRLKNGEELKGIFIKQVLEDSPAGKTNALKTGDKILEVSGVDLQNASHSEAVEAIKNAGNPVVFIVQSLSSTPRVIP

[16] = target: T7, APBA1_2, Q02410
T7 sequence (Q02410 742-832, limits assumed, looked up): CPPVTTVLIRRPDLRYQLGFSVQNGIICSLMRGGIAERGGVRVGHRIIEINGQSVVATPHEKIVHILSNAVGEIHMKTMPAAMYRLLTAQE

[17] = target: MAGI1_2, Q96QZ7
MAGI1_2, Q96QZ7, sequence (Q96QZ7 456-580): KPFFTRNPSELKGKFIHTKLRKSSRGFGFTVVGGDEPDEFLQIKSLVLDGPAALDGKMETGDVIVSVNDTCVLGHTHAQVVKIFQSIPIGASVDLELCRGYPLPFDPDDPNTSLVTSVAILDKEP

[18] = target: T8, LIN7B, Q9HAP6
T8 sequence (Q9HAP6 88-185, limits assumed, looked up): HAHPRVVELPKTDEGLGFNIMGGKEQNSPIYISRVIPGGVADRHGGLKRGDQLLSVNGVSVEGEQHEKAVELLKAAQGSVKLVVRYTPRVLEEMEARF

[19] = target: DLG4_3, P78352
DLG4_3, P78352, sequence (P78352 306-403): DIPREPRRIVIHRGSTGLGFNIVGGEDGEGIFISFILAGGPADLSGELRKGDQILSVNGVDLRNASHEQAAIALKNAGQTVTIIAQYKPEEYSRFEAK

[20] = target: T9, NHERF3_3, Q5T2W1
T9 sequence (Q5T2W1 238-333, limits assumed, looked up): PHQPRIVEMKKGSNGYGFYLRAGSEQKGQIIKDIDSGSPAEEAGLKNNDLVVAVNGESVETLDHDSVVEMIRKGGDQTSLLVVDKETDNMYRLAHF

[21] = target: T10, MPP7, Q5T2T1
T10 sequence (Q5T2T1 134-230, limits assumed, looked up): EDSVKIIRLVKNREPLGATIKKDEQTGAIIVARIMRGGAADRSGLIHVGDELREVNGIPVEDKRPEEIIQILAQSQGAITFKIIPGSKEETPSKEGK

[22] = target: T11, SHANK1, Q9Y566
T11 sequence (Q9Y566 658-767, limits assumed, looked up): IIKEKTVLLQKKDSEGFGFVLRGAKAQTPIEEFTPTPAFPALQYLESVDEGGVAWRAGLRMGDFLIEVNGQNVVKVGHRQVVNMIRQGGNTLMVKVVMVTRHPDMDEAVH

[23] = target: Inadl_4, Q8NI35
Inadl_4, Q8NI35, sequence (Q8NI35 547-651): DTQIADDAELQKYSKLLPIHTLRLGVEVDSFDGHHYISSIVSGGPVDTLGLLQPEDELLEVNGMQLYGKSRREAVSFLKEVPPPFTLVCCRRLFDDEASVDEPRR

[24] = target: MAGI2_6, Q86UL8
MAGI2_6, Q86UL8, sequence (Q86UL8 1141-1229): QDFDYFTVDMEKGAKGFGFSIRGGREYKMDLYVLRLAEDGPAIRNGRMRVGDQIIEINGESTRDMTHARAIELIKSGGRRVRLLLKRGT

[25] = target: IL16_1, Q14005
IL16_1, Q14005, sequence (Q14005 210-306): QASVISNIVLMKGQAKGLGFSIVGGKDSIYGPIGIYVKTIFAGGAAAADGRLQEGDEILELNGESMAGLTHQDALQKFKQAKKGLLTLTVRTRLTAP

[26] = target: T12, PTPN13_1, Q12923
T12 sequence (Q12923 1088-1188, limits assumed, looked up): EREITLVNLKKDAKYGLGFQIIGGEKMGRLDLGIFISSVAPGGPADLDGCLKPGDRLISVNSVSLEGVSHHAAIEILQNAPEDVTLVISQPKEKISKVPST

[27] = plain residues with an end cap or a label only (N-terminal biotin on a linker: ttds)
[28] = plain residues with an end cap or a label only (N-terminal biotin on a linker: ahx)

DLG5_1, Q8TDM6, sequence (Q8TDM6 617-713): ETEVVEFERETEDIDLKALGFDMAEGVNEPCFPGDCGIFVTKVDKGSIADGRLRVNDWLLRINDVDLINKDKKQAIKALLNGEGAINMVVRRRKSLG

pKd [1, 27]: below the threshold
pKd [2, 27]: below the threshold
pKd [3, 27]: 3.53
pKd [4, 27]: below the threshold
pKd [5, 27]: below the threshold
pKd [6, 27]: 3.71
pKd [7, 27]: below the threshold
pKd [8, 27]: 3.84
pKd [9, 27]: below the threshold
pKd [10, 27]: below the threshold
pKd [11, 27]: below the threshold
pKd [12, 27]: 4.24
pKd [13, 27]: 3.93
pKd [14, 27]: below the threshold
pKd [15, 27]: below the threshold
pKd [16, 27]: below the threshold
pKd [17, 27]: below the threshold
pKd [18, 27]: below the threshold
pKd [19, 27]: below the threshold
pKd [20, 27]: below the threshold
pKd [21, 27]: below the threshold
pKd [22, 27]: 3.49
pKd [23, 27]: below the threshold
pKd [24, 27]: 4.02
pKd [25, 27]: 3.86
pKd [26, 27]: below the threshold
B1: GDA, Q9Y2T3 (peptide)
chain: KQVVPFSSSV

pKd [1, 28]: below the threshold
pKd [2, 28]: below the threshold
pKd [3, 28]: 5.15
pKd [4, 28]: below the threshold
pKd [5, 28]: below the threshold
pKd [6, 28]: 4.64
pKd [7, 28]: below the threshold
pKd [8, 28]: below the threshold
pKd [9, 28]: below the threshold
pKd [10, 28]: 4.25
pKd [11, 28]: below the threshold
pKd [12, 28]: 4.94
pKd [13, 28]: below the threshold
pKd [14, 28]: below the threshold
pKd [15, 28]: 4.33
pKd [16, 28]: 4.62
pKd [17, 28]: below the threshold
pKd [18, 28]: below the threshold
pKd [19, 28]: below the threshold
pKd [20, 28]: below the threshold
pKd [21, 28]: below the threshold
pKd [22, 28]: below the threshold
pKd [23, 28]: below the threshold
pKd [24, 28]: 5.48
pKd [25, 28]: 4.1
pKd [26, 28]: below the threshold
B2: ARVCF, O00192 (peptide)
chain: AKPQPVDSWV

pKd [1, 27]: below the threshold
pKd [2, 27]: below the threshold
pKd [3, 27]: 5
pKd [4, 27]: 3.85
pKd [5, 27]: below the threshold
pKd [6, 27]: below the threshold
pKd [7, 27]: below the threshold
pKd [8, 27]: below the threshold
pKd [9, 27]: below the threshold
pKd [10, 27]: below the threshold
pKd [11, 27]: 4.49
pKd [12, 27]: 4.93
pKd [13, 27]: below the threshold
pKd [14, 27]: below the threshold
pKd [15, 27]: 3.55
pKd [16, 27]: 3.74
pKd [17, 27]: 3.76
pKd [18, 27]: 3.86
pKd [19, 27]: 4.03
pKd [20, 27]: below the threshold
pKd [21, 27]: below the threshold
pKd [22, 27]: 3.56
pKd [23, 27]: below the threshold
pKd [24, 27]: 3.89
pKd [25, 27]: below the threshold
pKd [26, 27]: below the threshold
B3: MAPK12, P53778 (peptide)
chain: GARVSKETPL
